Experimental data published in the supplement of paper PMC9170038.

System: MS2 coat protein
Test: apparent KD of MS2 coat protein; designed switch direction (-1 OFF switch, 1 ON switch): -1; higher = weaker reporter binding
Summary of the method: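 An oligonucleotide input, 200 uM small-molecule ligand, or no input was present during titration of SNAP-549-labelled MS2 coat protein, which was doubled from 0.7 or 1.5 nM to 3 µM. Designed RNA switches had been transcribed on Illumina chips by stalled E. coli RNA polymerase. Apparent KD per design is the median over clusters of curves fitted to normalised cluster fluorescence.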

[1] = input ligand: microRNA oligo, concentration not stated

Row | Sequence | apparent KD of MS2 coat protein (input ligand: FMN 200 uM) | apparent KD of MS2 coat protein [1] | apparent KD of MS2 coat protein (input ligand: none) | apparent KD of MS2 coat protein (Eterna round: R95, input ligand: FMN 200 uM) | apparent KD of MS2 coat protein (Eterna round: R95, input ligand: microRNA oligo, concentration not stated) | apparent KD of MS2 coat protein (Eterna round: R95, input ligand: none)
1 | CAUCCUAUUGUAGGAUAUCCGCUUAUUAUAUUGGGAGAAGGACAUGAGGAUCACCCAUGUGUGUAAUCAGAUGUGCGUGUUAAC [an other try] (Eterna round: R96, puzzle: Exclusion NG 1) | 173 nM | 66.1 nM | 82.2 nM |  |  | 
2 | UACUUCUGAGGAUAUACAUAGAUUUACAUGAGGAUCACCCAUGUUCCUCUUUGUAUAAAUGUAGAAGGCAGAAGAU [Mat - Exclusion 5 - JL Mod - D74] (Eterna round: R97, puzzle: Exclusion 5) | 95.6 nM |  | 231 nM |  |  | 
3 | UCUGGUCGAGGAUAUACAUGAGGAUCACCCAUGUGGUUACGUGACGAUAGUCACGAAUGUAGAAGGCGACCAGA [E3/4-A2] (Eterna round: R97, puzzle: Exclusion 3) | 326 nM |  | 230 nM |  |  | 
4 | AGAUGCUCAAGUCGACAUGAGGAUCACCCAUGUACAGUUAAUGAGGAUAUCCGAGAUAAAUAAUAGGAGAAGGUAUGAUCAUGA [Ex NG3 #5] (Eterna round: R96, puzzle: Exclusion NG 3) | 86.7 nM | 175 nM | 59.5 nM |  |  | 
5 | UGAGGACAUGAGGAUCACCCAUGUAAGGAUAUGCGGAGAGCUUGGAGAGGUUGAGGAGGCAGAAGGUACAGGAC [JR_Exclu1_Sub048] (puzzle: Exclusion 1) |  |  |  | 47.7 nM | 48.3 nM | 57 nM
6 | AGUACUAACACGCAUGUGUUAGUACAAUAAGCUUGUGAAACAUGAGGAUCACCCAUGUCCUCAUAAGCUCGUCUUAU [salish99_TOv2_r3_068] (Eterna round: R96, puzzle: Sensor v3, turn-off variant 2) | 14.8 nM | 415 nM | 17.2 nM |  |  | 
7 | CCGCUACAUGAGGAUCACCCAUGUCAGGAUAUCGUACGUUCGUCGAUAGACGAUCGUACGAGAAGGGUGUGCGG [Mat - Exclusion 1 - Eli Mod - D36] (Eterna round: R97, puzzle: Exclusion 1) | 81.4 nM |  | 139 nM |  |  | 
8 | CUCCAGCAAGGAUAUACGUGUCUAAGAAGAGGUCUUAUGCUACAUGAGGAUCACCCAUGUAGAAGGUGCGGACA [EX2 C.2] (Eterna round: R97, puzzle: Exclusion 2) | 14.4 nM |  | 15.4 nM |  |  | 
9 | GAUGGACAUGAGGAUCACCCAUGUAAGGAUAUUGAUUAUGGUUAUAAAUAAUUAUGGUCAAGAAGGUACUCGUC [-17.8, -14.8 kcal, A 34%] (Eterna round: R97, puzzle: Exclusion 1) | 114 nM |  | 147 nM |  |  | 
10 | AGGUGUAGAGGAUAUCUCUUCUCUCACAUGAGGAUCACCCAUGUCCUAAAGACCAAGGAGAGAGAAGGCUACACCA [Omei Ex5 D6] (Eterna round: R97, puzzle: Exclusion 5) | 42 nM |  | 41.8 nM |  |  | 
11 | ACAUGAGGAUCACCCAUGUCCGGCUGGUCUGUUUCGGCUGUCGAGGAUAUAGUUCGGUGUUCGCGCUAGAAGGCGGGAGCUGGC [Aenatbe mod 59] (Eterna round: R96, puzzle: Exclusion NG 3) | 111 nM | 56.5 nM | 82.4 nM |  |  | 
12 | GUCGUGCGGCUUUGCUGUGCGGGUACAUGAGGAUCACCCAUGUAGGAUAUGGUGCGCUUUGCGUGCCAGAAGGGCGUGCGUUGG [salish99_ExNG3_r04_010] (Eterna round: R96, puzzle: Exclusion NG 3) | 45.7 nM | 28 nM | 36.4 nM |  |  | 
13 | UCAUGUCCUGAGGAUAUGCAGCGGAUAAACGCAGCAGAAGGCAGGACAUGAGGAUCACCCAUGUGUGCCUUCUA [Exclusion 6 Mod5 of JL of Mod of Letion by ViennaUCT] (Eterna round: R97, puzzle: Exclusion 6) | 18.3 nM |  | 190 nM |  |  | 
